Experimental data published in patent US8632989B1, “Mutant insulin degrading enzyme and methods of use” (University of Kentucky Research Foundation, priority 2011, dated 2014).
Read-outs that look alike come from different tables or passages of the source.

T1: Abz-GGFLRKHGQ-EDDnp
T1 chain: GGFLRKHGQ


Columns and labels:
[1] = system: Abz-GGFLRKHGQ-EDDnp; assay: Activation by ATP, wild type rIDE and distal site mutants; type: biochemical; conditions: 10 μM Abz-GGFLRKHGQ-EDDnp as substrate
Procedure: (§1) FIG. 17. Effects of distal site mutations. (A) Comparison of the kinetics of wild type IDE with the distal site mutants. Activity was measured with varying amounts of Abz-[…]-EDDnp (SEQ ID NO:3) substrate as indicated. Either hyperbolic (Michaelis-Menten equation) or sigmoidal curves (Hill equation) were fit to the data. (B) Effect of bradykinin on the activity of wild type IDE and the distal site mutants. (C) Activation of wild type IDE and distal site mutants by ATP. Relative activity is the fold activation above the level of the wild type enzyme alone.
(§2) The activity of IDE was measured by following the increase in fluorescence upon hydrolysis at the L-R bond of the fluorogenic peptide Abz-[…]-EDDnp (SEQ ID NO:3) on a SpectraMax Gemini XS fluorescence plate reader using an excitation wavelength of 318 nm and emission wavelength of 419 nm. Reactions were carried out in 200 μl volumes containing 50 mM Tris-HCl, pH 7.4, 1.92 μg of wild type rIDE, 4.6 μg of rIDE-V360S, 4.3 μg rIDE-I374S, or 1.63 μg of rIDE-Y609F. For measurements of activation by bradykinin, IDE activity was determined with 10 μM Abz-[…]-EDDnp (SEQ ID NO:3) as substrate in 50 mM Tris-HCl buffer, pH 7.4. The amount of protein was 0.5 μg for wild type rIDE and 5 μg for each of the IDE distal-site mutants. Data were analyzed using Softmax 4.0 (Molecular Devices) and kinetic parameters calculated with Prism (Graphpad Software). […] Under these assay conditions, both wild type and mutant rIDE are almost completely dimeric.
Fluorescence measurements of TNP-ATP binding were performed on a Perkin-Elmer LS55 Luminescence Spectrometer. Titrations were monitored at an excitation wavelength of 403 nm and emission wavelength of 547 nm. The temperature of the sample was maintained at 20±0.1° C. by circulating thermostatically controlled water through the cuvette holder. […] The fluorescence of TNP-ATP was subtracted from the total fluorescence of enzyme+TNP-ATP to yield specific fluorescence enhancement (ΔF).

[2] = Fluorescence measurements of TNP-ATP binding, wild type rIDE and distal site mutants; conditions: hyperbolic one site binding fit, 20 °C
Procedure: The fluorescence increase on binding of (2,4,6-trinitrophenyl)ATP (TNP-ATP) is plotted for the indicated IDE constructs as a function of ligand concentration. Data were fit to a hyperbolic one site binding mechanism.
Fluorescence emission spectra of 10 μM TNP-ATP in […] Tris-HCl, pH7.4, was measured in the presence of 1.5 μM of each wild type IDE and the indicated IDE distal mutants. Fluorescence spectra were recorded with a λexc=403 nm on a Perkin-Elmer LS55 Luminescence Spectrometer.
Fluorescence measurements of TNP-ATP binding were performed on a Perkin-Elmer LS55 Luminescence Spectrometer. Titrations were monitored at an excitation wavelength of 403 nm and emission wavelength of 547 nm. The temperature of the sample was maintained at 20±0.1° C. by circulating thermostatically controlled water through the cuvette holder. Assays were conducted in 200 μL reaction mixtures containing 50 mM Tris-HCl, pH, 7.4, 10 μM Abz-[…]-EDDnp (SEQ ID NO:3) as substrate, and 0.5 μg wild type rIDE, 2.3 μg rIDE-V3605, 2.0 μg rIDE-I3745 or 1.62 μg rIDEY609F and the indicated concentration of ATP. The fluorescence of TNP-ATP was subtracted from the total fluorescence of enzyme+TNP-ATP to yield specific fluorescence enhancement (ΔF).

[3] = system: Abz-GGFLRKHGQ-EDDnp; assay: Enzyme activity assay, kinetics of wild type rIDE and distal site mutants with fluorogenic substrate; type: biochemical; conditions: rat IDE, Abz-GGFLRKHGQ-EDDnp as substrate; for Vmax: 50 mM Tris-HCl, pH 7.4
Procedure: as §1, §2

[4] = target: T1, Abz-GGFLRKHGQ-EDDnp
[5] = target: bradykinin, P01042
bradykinin, P01042, sequence (P01042 whole entry, looked up): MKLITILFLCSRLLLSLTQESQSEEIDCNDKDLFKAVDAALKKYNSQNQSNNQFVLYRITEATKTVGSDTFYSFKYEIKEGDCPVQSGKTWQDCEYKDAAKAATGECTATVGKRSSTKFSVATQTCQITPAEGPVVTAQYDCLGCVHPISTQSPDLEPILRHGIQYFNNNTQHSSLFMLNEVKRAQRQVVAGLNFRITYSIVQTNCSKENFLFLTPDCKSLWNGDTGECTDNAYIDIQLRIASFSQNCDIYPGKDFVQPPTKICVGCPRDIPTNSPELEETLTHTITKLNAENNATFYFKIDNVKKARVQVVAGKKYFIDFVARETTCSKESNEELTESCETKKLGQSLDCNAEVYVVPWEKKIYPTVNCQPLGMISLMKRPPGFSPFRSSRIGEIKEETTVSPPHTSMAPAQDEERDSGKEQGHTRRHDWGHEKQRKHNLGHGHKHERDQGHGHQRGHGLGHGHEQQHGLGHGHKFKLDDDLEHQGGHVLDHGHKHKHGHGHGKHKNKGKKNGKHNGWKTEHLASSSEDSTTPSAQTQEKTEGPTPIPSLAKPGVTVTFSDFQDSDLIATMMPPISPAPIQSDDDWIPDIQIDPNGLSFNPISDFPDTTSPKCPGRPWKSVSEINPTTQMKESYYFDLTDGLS

Row | Molecule | ATP activation [1] | Kd [2] | Hill coefficient [3] | Km [3] | Vmax [3] | Hill coefficient ([3]; listed as Tyr609Phe) | Hill coefficient ([3]; listed as Val360Ser) | Hill coefficient [4] | Km [4] | Vmax [4] | Heterotropic activation of Abz-GGFLRKHGQ-EDDnp hydrolysis [5]
1 | Y609F: Rat IDE distal site mutant Y609F (protein, UniProt P35559 1-1019, looked up, variant Y609F) Insulin-degrading enzyme: MRNGLVWLLHPALPSTLHSILGARPPPVKRLCGFPKQIYSTMNNPAIQRIEDHIVKSPEDKREYRGLELANGIKVLLISDPTTDKSSAALDVHIGSLSDPPNIPGLSHFCEHMLFLGTKKYPKENEYSQFLSEHAGSSNAFTSGEHTNYYFDVSHEHLEGALDRFAQFFLCPLFDASCKDREVNAVDSEHEKNVMNDAWRLFQLEKATGNPKHPFSKFGTGNKYTLETRPNQEGIDVREELLKFHSTYYSSNLMAICVLGRESLDDLTNLVVKLFSEVENKNVPLPEFPEHPFQEEHLKQLYKIVPIKDIRNLYVTFPIPDLQQYYKSNPGHYLGHLIGHEGPGSLLSELKSKGWVNTLVGGQKEGARGFMFFIINVDLTEEGLLHVEDIILHMFQYIQKLRAEGPQEWVFQECKDLNAVAFRFKDKERPRGYTSKIAGKLHYYPLNGVLTAEYLLEEFRPDLIDMVLDKLRPENVRVAIVSKSFEGKTDRTEQWYGTQYKQEAIPEDVIQKWQNADLNGKFKLPTKNEFIPTNFEILALEKDATPYPALIKDTAMSKLWFKQDDKFFLPKACLNFEFFSPFAYVDPLHCNMAYLYLELLKDSLNEYAFAAELAGLSYDLQNTIYGMYLSVKGYNDKQPILLKKITEKMATFEIDKKRFEIIKEAYMRSLNNFRAEQPHQHAMYYLRLLMTEVAWTKDELKEALDDVTLPRLKAFIPQLLSRLHIEALLHGNITKQAALGVMQMVEDTLIEHAHTKPLLPSQLVRYREVQLPDRGWFVYQRRNEVHNNCGIEIYYQTDMQSTSENMFLELFCQIISEPCFNTLRTKEQLGYIVFSGPRRANGIQGLRFIIQSEKPPHYLESRVEAFLITMEKAIEDMTEEAFQKHIQALAIRRLDKPKKLSAECAKYWGEIISQQYNYDRDNIEVAYLKTLSKDDIIKFYKEMLAVDAPRRHKVSVHVLAREMDSCPVVGEFPSQNDINLSEAPPLPQPEVIHNMTEFKRGLPLFPLVKPHINFMAAKL | not significant | 2000 ± 300 nM | 1.04 | 6.86 ± 1.18 µM | 2.6 ± 0.56 nmol/min/mg | 1.04 ± 0.14 | – | – | – | – | –
2 | V360S: Rat IDE distal site mutant V360S (protein, UniProt P35559 1-1019, looked up, variant V360S) Insulin-degrading enzyme: MRNGLVWLLHPALPSTLHSILGARPPPVKRLCGFPKQIYSTMNNPAIQRIEDHIVKSPEDKREYRGLELANGIKVLLISDPTTDKSSAALDVHIGSLSDPPNIPGLSHFCEHMLFLGTKKYPKENEYSQFLSEHAGSSNAFTSGEHTNYYFDVSHEHLEGALDRFAQFFLCPLFDASCKDREVNAVDSEHEKNVMNDAWRLFQLEKATGNPKHPFSKFGTGNKYTLETRPNQEGIDVREELLKFHSTYYSSNLMAICVLGRESLDDLTNLVVKLFSEVENKNVPLPEFPEHPFQEEHLKQLYKIVPIKDIRNLYVTFPIPDLQQYYKSNPGHYLGHLIGHEGPGSLLSELKSKGWVNTLSGGQKEGARGFMFFIINVDLTEEGLLHVEDIILHMFQYIQKLRAEGPQEWVFQECKDLNAVAFRFKDKERPRGYTSKIAGKLHYYPLNGVLTAEYLLEEFRPDLIDMVLDKLRPENVRVAIVSKSFEGKTDRTEQWYGTQYKQEAIPEDVIQKWQNADLNGKFKLPTKNEFIPTNFEILALEKDATPYPALIKDTAMSKLWFKQDDKFFLPKACLNFEFFSPFAYVDPLHCNMAYLYLELLKDSLNEYAYAAELAGLSYDLQNTIYGMYLSVKGYNDKQPILLKKITEKMATFEIDKKRFEIIKEAYMRSLNNFRAEQPHQHAMYYLRLLMTEVAWTKDELKEALDDVTLPRLKAFIPQLLSRLHIEALLHGNITKQAALGVMQMVEDTLIEHAHTKPLLPSQLVRYREVQLPDRGWFVYQRRNEVHNNCGIEIYYQTDMQSTSENMFLELFCQIISEPCFNTLRTKEQLGYIVFSGPRRANGIQGLRFIIQSEKPPHYLESRVEAFLITMEKAIEDMTEEAFQKHIQALAIRRLDKPKKLSAECAKYWGEIISQQYNYDRDNIEVAYLKTLSKDDIIKFYKEMLAVDAPRRHKVSVHVLAREMDSCPVVGEFPSQNDINLSEAPPLPQPEVIHNMTEFKRGLPLFPLVKPHINFMAAKL | 8 fold | 3700 ± 800 nM | 1.07 | 8.61 ± 0.81 µM | 2.01 ± 0.08 nmol/min/mg | – | 1.07 ± 0.30 | – | – | – | –
3 | rIDE-V360S (protein) MNNPAIQRIEDHIVKSPEDKREYRGLELANGIKVLLISDPTTDKSSAALDVHIGSLSDPPNIPGLSHFCEHMLFLGTKKYPKENEYSQFLSEHAGSSNAFTSGEHTNYYFDVSHEHLEGALDRFAQFFLCPLFDASCKDREVNAVDSEHEKNVMNDAWRLFQLEKATGNPKHPFSKFGTGNKYTLETRPNQEGIDVREELLKFHSTYYSSNLMAICVLGRESLDDLTNLVVKLFSEVENKNVPLPEFPEHPFQEEHLKQLYKIVPIKDIRNLYVTFPIPDLQQYYKSNPGHYLGHLIGHEGPGSLLSELKSKGWVNTLSGGQKEGARGFMFFIINVDLTEEGLLHVEDIILHMFQYIQKLRAEGPQEWVFQECKDLNAVAFRFKDKERPRGYTSKIAGKLHYYPLNGVLTAEYLLEEFRPDLIDMVLDKLRPENVRVAIVSKSFEGKTDRTEQWYGTQYKQEAIPEDVIQKWQNADLNGKFKLPTKNEFIPTNFEILALEKDATPYPALIKDTAMSKLWFKQDDKFFLPKACLNFEFFSPFAYVDPLHCNMAYLYLELLKDSLNEYAYAAELAGLSYDLQNTIYGMYLSVKGYNDKQPILLKKITEKMATFEIDKKRFEIIKEAYMRSLNNFRAEQPHQHAMYYLRLLMTEVAWTKDELKEALDDVTLPRLKAFIPQLLSRLHIEALLHGNITKQAALGVMQMVEDTLIEHAHTKPLLPSQLVRYREVQLPDRGWFVYQRRNEVHNNCGIEIYYQTDMQSTSENMFLELFCQIISEPCFNTLRTKEQLGYIVFSGPRRANGIQGLRFIIQSEKPPHYLESRVEAFLITMEKAIEDMTEEAFQKHIQALAIRRLDKPKKLSAECAKYWGEIISQQYNYDRDNIEVAYLKTLSKDDIIKFYKEMLAVDAPRRHKVSVHVLAREMDSCPVVGEFPSQNDINLSEAPPLPQPEVIHNMTEFKRGLPLFPLVKPHINFMAAKL | – | – | – | – | – | – | – | 1.07 | 8.61 µM | 2.01 nmol/min/mg | is also lost in all three mutants
4 | rIDE-I374S (protein) MNNPAIQRIEDHIVKSPEDKREYRGLELANGIKVLLISDPTTDKSSAALDVHIGSLSDPPNIPGLSHFCEHMLFLGTKKYPKENEYSQFLSEHAGSSNAFTSGEHTNYYFDVSHEHLEGALDRFAQFFLCPLFDASCKDREVNAVDSEHEKNVMNDAWRLFQLEKATGNPKHPFSKFGTGNKYTLETRPNQEGIDVREELLKFHSTYYSSNLMAICVLGRESLDDLTNLVVKLFSEVENKNVPLPEFPEHPFQEEHLKQLYKIVPIKDIRNLYVTFPIPDLQQYYKSNPGHYLGHLIGHEGPGSLLSELKSKGWVNTLVGGQKEGARGFMFFSINVDLTEEGLLHVEDIILHMFQYIQKLRAEGPQEWVFQECKDLNAVAFRFKDKERPRGYTSKIAGKLHYYPLNGVLTAEYLLEEFRPDLIDMVLDKLRPENVRVAIVSKSFEGKTDRTEQWYGTQYKQEAIPEDVIQKWQNADLNGKFKLPTKNEFIPTNFEILALEKDATPYPALIKDTAMSKLWFKQDDKFFLPKACLNFEFFSPFAYVDPLHCNMAYLYLELLKDSLNEYAYAAELAGLSYDLQNTIYGMYLSVKGYNDKQPILLKKITEKMATFEIDKKRFEIIKEAYMRSLNNFRAEQPHQHAMYYLRLLMTEVAWTKDELKEALDDVTLPRLKAFIPQLLSRLHIEALLHGNITKQAALGVMQMVEDTLIEHAHTKPLLPSQLVRYREVQLPDRGWFVYQRRNEVHNNCGIEIYYQTDMQSTSENMFLELFCQIISEPCFNTLRTKEQLGYIVFSGPRRANGIQGLRFIIQSEKPPHYLESRVEAFLITMEKAIEDMTEEAFQKHIQALAIRRLDKPKKLSAECAKYWGEIISQQYNYDRDNIEVAYLKTLSKDDIIKFYKEMLAVDAPRRHKVSVHVLAREMDSCPVVGEFPSQNDINLSEAPPLPQPEVIHNMTEFKRGLPLFPLVKPHINFMAAKL | – | – | – | – | – | – | – | 1.12 | 8.5 µM | 3.45 nmol/min/mg | is also lost in all three mutants
